From patent publication US20190252037A1
Read-outs that look alike come from different tables or passages of the source.

Columns and labels:
[1] = target: heterotrimeric polymerase from influenza A/little yellow-shouldered bat/Guatemala/060/2010 (H17N10), wild type (Influenza A/little yellow-shouldered bat/Guatemala/060/2010 (H17N10))
[2] = target: 4-repeats non-phosphorylated CTD peptide, fluorescently labelled with FAM at the N-terminal end
[3] = target: 2-repeats (14 amino acids) Ser-5 phosphorylated CTD peptide, fluorescently labelled with FAM at the N-terminal end
[4] = target: 4-repeats (28 amino acids) Ser-5 phosphorylated CTD peptide, fluorescently labelled with FAM at the N-terminal end
[5] = target: 4-repeats (28 amino acids) Ser-5 phosphorylated CTD peptide, fluorescently labelled with FAM at the N-terminal end; remark: listed apart in the source
[6] = target: 2-repeats (14 amino acids) Ser-5 phosphorylated CTD peptide, fluorescently labelled with FAM at the N-terminal end; remark: listed apart in the source
[7] = target: 4-repeats (28 amino acids) Ser-5 phosphorylated CTD peptide, fluorescently labelled with FAM at the N-terminal end; remark: listed apart in the source

## Ser-5-phosphorylated 28-mer CTD peptide (four heptad repeats), not labelled
[1]
  apparent KD (KD'): 2.7 µM

## heterotrimeric polymerase from influenza A/little yellow-shouldered bat/Guatemala/060/2010 (H17N10), wild type (enzyme)
[2]
  Kd: > 10 µM
[3]
  Kd: 6.1 µM
[4]
  Kd: 900 nM
[5]
  Kd: 800 nM

## heterotrimeric polymerase from human influenza B/Memphis/13/03, wild type (enzyme)
[6]
  Kd: 4.2 µM
[7]
  Kd: 2900 nM
